{
  "source": "patent US11447566B2",
  "about": "“Anti-tissue factor antibodies, antibody-drug conjugates, and related methods” (Iconic Therapeutics, Inc., priority 2018, dated 2022)",
  "key": {"[1]": {"test_system": "human thrombin generation (relipidated TF, normal pooled plasma)", "assay": "Thrombin generation assay (TGA)", "assay_type": "biochemical", "details": "100 nM antibody, Example 18", "experimental": "(§1) The TGA assay was performed using the calibrated-automated-thrombogram (CAT) instrument manufactured and distributed by STAGO. The test method design was equivalent to a standard CAT assay measurement, except that the plasma source was NPP in citrate/CTI. […] Relipidated TF was added to a 96-well assay plate, followed by addition of the antibody/NPP mixture. After a 10-min incubation or directly after combining the relipidated TF with antibody/NPP, thrombin generation was initiated by the addition of calcium and the thrombin substrate. The STAGO software was used to report the following parameters: Peak IIa (highest thrombin concentration generated [nM]); Lag Time (time to IIa generation [min]); ETP (endogenous thrombin potential, area under the curve [nM×min]); and ttPeak (time to Peak IIa [min]).\nas §1, with “was normal pooled plasma (NPP)” for “was NPP”, “in citrate supplemented with corn trypsin inhibitor (citrate/CTI).” for “in citrate/CTI.”\nTGA assay was performed using the calibrated-automated-thrombogram (CAT) instrument manufactured and distributed by STAGO (Diagnostica Stago SAS, Asnieres sur Seine, France). […] The anti-TF antibodies were titrated at 0, 10, 50 and 100 nM and mixed with NPP in citrate/CTI. Relipidated TF was added to a 96-well assay plate, followed by addition of the antibody/NPP mixture. After a 10-min incubation or directly after combining the relipidated TF with antibody/NPP, thrombin generation was initiated by the addition of calcium and the thrombin substrate. The STAGO software was used to report the following parameters: Peak IIa (highest thrombin concentration generated on the thrombin generation curve [nM]); Lag Time (time from assay start to the moment 10 nM of thrombin is formed [min]); ETP (endogenous thrombin potential, area under the curve [nM×min]); and ttPeak (time from assay start to Peak IIa [min]). […] As used herein, the term “thrombin generation assay” (TGA) refers to the TGA used in this example."}, "[2]": {"molecular_target": "T1, human, rat and chimeric human-rat TF constructs expressed on HEK293 cells (Homo sapiens, UniProt P13726, S192D)", "T1 construct": "expressed in transfected cells; host or cells: HEK293", "assay": "Live cell staining assay on chimeric TF constructs (epitope binning)", "assay_type": "cell-based", "details": "construct h159-219_r (27), human segment replaced by rat segment", "experimental": "(§2) To establish binding of the anti-human TF antibodies to the various TF constructs, HEK293 cells were transfected with a DNA plasmid that co-expresses the TF construct and a green fluorescent protein marker. […] Two days after transfection, cells were collected from the tissue culture plate, stained with 15 μg/ml of the indicated anti-TF antibody, washed, stained with anti-human IgG-Fc Alexa Fluor 647 polyclonal antibody, washed, and stained with the viability dye 4′,6-Diamidino-2-Phenylindole, Dihydrochloride. Upon acquisition of 80,000 live events on a flow cytometer, live cells marked with the fluorescent marker were analyzed for the degree of staining by the anti-TF antibody. […] As used herein, the term “live cell staining assay” refers to the antibody binding assay used in this example.\n(§3) When “Percentage antibody binding to TF construct relative to hTF” in Tables 51 and 52 was less than 50%, the antibody was considered a non-binder (0) in Tables 53 and 54.\n(§4) Each antibody was assigned to an epitope bin in Table 55 based on the combination of unbound constructs from Table 53."}, "[3]": {"molecular_target": "T2, human, rat and chimeric human-rat TF constructs expressed on HEK293 cells (Homo sapiens, UniProt P13726, I184G/T186I/W190R/Y188T)", "T2 construct": "expressed in transfected cells; host or cells: HEK293", "assay": "Live cell staining assay on chimeric TF constructs (epitope binning)", "assay_type": "cell-based", "details": "construct h152-158_r (4), human segment replaced by rat segment", "experimental": "as §2, §3, §4"}, "[4]": {"molecular_target": "T3, human, rat and chimeric human-rat TF constructs expressed on HEK293 cells (Rattus norvegicus, UniProt P42533, A222V/D193S/E213D/F221S/G171N/G185I/H204N/I187T/K169R/N182K/N201A/Q178D/R191W/R198K/S217N/T175S/T189Y/T196S/T202K/V216E)", "T3 construct": "expressed in transfected cells; host or cells: HEK293", "assay": "Live cell staining assay on chimeric TF constructs (epitope binning)", "assay_type": "cell-based", "details": "construct r141-194_h, rat amino acid segment replaced by human segment (20 amino acid changes)", "experimental": "as §2, §3, §4"}, "[5]": {"molecular_target": "T4, human, rat and chimeric human-rat TF constructs expressed on HEK293 cells (Homo sapiens, UniProt P13726, E127T/E131K/E137D/L136R/N139K/P130R/S129A/T133L/Y126F)", "T4 construct": "expressed in transfected cells; host or cells: HEK293", "assay": "Live cell staining assay on chimeric TF constructs (epitope binning)", "assay_type": "cell-based", "details": "construct h94-107_r (9), human segment replaced by rat segment", "experimental": "as §2, §3, §4"}, "[6]": {"molecular_target": "T5, human, rat and chimeric human-rat TF constructs expressed on HEK293 cells (Homo sapiens, UniProt P13726, D177Q/S174T)", "T5 construct": "expressed in transfected cells; host or cells: HEK293", "assay": "Live cell staining assay on chimeric TF constructs (epitope binning)", "assay_type": "cell-based", "details": "construct h140-145_r (2), human segment replaced by rat segment", "experimental": "as §2, §3, §4"}, "[7]": {"molecular_target": "T6, human, rat and chimeric human-rat TF constructs expressed on HEK293 cells (Homo sapiens, UniProt P13726, A112W/A121G/E116T/E127T/E131K/E137D/G113R/G119T/G122E/L125P/L136R/N139K/P130R/S117H/S120H/S129A/T118G/T133L/V115S/Y110V/Y126F)", "T6 construct": "expressed in transfected cells; host or cells: HEK293", "assay": "Live cell staining assay on chimeric TF constructs (epitope binning)", "assay_type": "cell-based", "details": "construct h78-107_r (21), human segment replaced by rat segment", "experimental": "as §2, §3, §4"}, "[8]": {"molecular_target": "T7, human, rat and chimeric human-rat TF constructs expressed on HEK293 cells (Homo sapiens, UniProt P13726, D177Q/N170G/R168K/S174T)", "T7 construct": "expressed in transfected cells; host or cells: HEK293", "assay": "Live cell staining assay on chimeric TF constructs (epitope binning)", "assay_type": "cell-based", "details": "construct h133-145_r (4), human segment replaced by rat segment", "experimental": "as §2, §3, §4"}, "[9]": {"molecular_target": "T8, human, rat and chimeric human-rat TF constructs expressed on HEK293 cells (Rattus norvegicus, UniProt P42533)", "T8 construct": "expressed in transfected cells; host or cells: HEK293", "assay": "Live cell staining assay on chimeric TF constructs (epitope binning)", "assay_type": "cell-based", "details": "construct rTF", "experimental": "as §2, §3, §4"}, "[10]": {"molecular_target": "T9, human TF on MDA-MB-231 cells (FVII-Fc binding) (Homo sapiens, UniProt P13726)", "T9 construct": "TF-positive MDA-MB-231 cells (ATCC, Manassas, Va., USA); host or cells: MDA-MB-231", "assay": "FVIIa competition assay", "details": "highest concentration of antibody; FIG. 14B", "protocol": "To evaluate competition between FVIIa and the human antibodies against TF, TF-positive MDA-MB-231 cells (ATCC, Manassas, Va., USA) were first incubated for 1 hr on ice with a titration of the human antibodies against TF. Subsequently, a final concentration of 20 nM of FVII-Fc conjugated to Alexa488 was added to the antibody cell mixture. After another 1 hr incubation on ice, cells were washed, stained with a viability dye, and analyzed by flow cytometry. The Alexa488 fluorescence data from viable cells was summarized using median fluorescence intensity.\nSubsequently, FVII-Fc conjugated to Alexa488 was added to the antibody-cell mixture at a final concentration of 20 nM. After another 1 hr incubation on ice, cells were washed, stained with a viability dye, and analyzed by flow cytometry. The Alexa488 fluorescence data from viable cells was summarized using median fluorescence intensity (MFI)."}},
  "data": [
    {"substance": "TF-011 [reference compound]", "values": [
      {"measurement": "reduction of the peak IIa concentration", "setting": "[1]; 10 min antibody pre-incubation", "value": 91, "unit": "%"},
      {"measurement": "reduction of the peak IIa concentration", "setting": "[1]; without antibody pre-incubation", "value": 91, "unit": "%"},
      {"measurement": "Antibody binding to TF construct", "setting": "[2]", "value": "1 (between 50% and 150%, the antibody was considered a binder (1))"},
      {"measurement": "Antibody binding to TF construct", "setting": "[3]", "value": "1 (between 50% and 150%, the antibody was considered a binder (1))"},
      {"measurement": "Antibody binding to TF construct", "setting": "[4]", "value": "0 (less than 50%, the antibody was considered a non-binder (0))"},
      {"measurement": "Antibody binding to TF construct", "setting": "[5]", "value": "0 (less than 50%, the antibody was considered a non-binder (0))"},
      {"measurement": "Antibody binding to TF construct", "setting": "[6]", "value": "1 (between 50% and 150%, the antibody was considered a binder (1))"},
      {"measurement": "Antibody binding to TF construct", "setting": "[7]", "value": "0 (less than 50%, the antibody was considered a non-binder (0))"},
      {"measurement": "Antibody binding to TF construct", "setting": "[8]", "value": "1 (between 50% and 150%, the antibody was considered a binder (1))"},
      {"measurement": "Antibody binding to TF construct", "setting": "[9]; Table 54", "value": "0 (less than 50%, the antibody was considered a non-binder (0))"},
      {"measurement": "Antibody binding to TF construct", "setting": "[9]", "value": "0 (less than 50%, the antibody was considered a non-binder (0))"},
      {"measurement": "competition with FVII", "setting": "[10]", "value": "effectively competed"}
    ]}
  ]
}
